One assay addresses T1, PLK2 Polo-box domain (Homo sapiens, UniProt Q9NYY3).
T1 sequence (Q9NYY3 355-685): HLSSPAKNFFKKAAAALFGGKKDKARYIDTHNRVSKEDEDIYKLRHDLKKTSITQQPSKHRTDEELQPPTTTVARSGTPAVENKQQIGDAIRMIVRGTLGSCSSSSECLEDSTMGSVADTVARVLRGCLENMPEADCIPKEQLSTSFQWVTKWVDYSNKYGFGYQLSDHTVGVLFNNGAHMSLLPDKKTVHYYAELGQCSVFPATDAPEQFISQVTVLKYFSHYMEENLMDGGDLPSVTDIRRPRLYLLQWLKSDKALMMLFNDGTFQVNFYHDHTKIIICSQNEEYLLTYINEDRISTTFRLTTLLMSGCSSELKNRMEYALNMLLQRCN
Briefly: fluorescence polarization competition with fluorescein-labeled phosphopeptide. The assay is classed as binding. (In fluorescence polarisation assays a small probe gives low polarisation when free and higher when bound to something large.)

In assay [1] the target is Polo-like kinase 1 (PLK1) Polo-box domain (Homo sapiens, UniProt P53350). The experiment in a line: microscale thermophoresis with labeled PLK1 PBD. It is filed as binding. In general terms: MST reads how a fluorescent partner responds to local heating, with and without ligand.
Polo-like kinase 1 (PLK1) Polo-box domain, sequence (P53350 326-603): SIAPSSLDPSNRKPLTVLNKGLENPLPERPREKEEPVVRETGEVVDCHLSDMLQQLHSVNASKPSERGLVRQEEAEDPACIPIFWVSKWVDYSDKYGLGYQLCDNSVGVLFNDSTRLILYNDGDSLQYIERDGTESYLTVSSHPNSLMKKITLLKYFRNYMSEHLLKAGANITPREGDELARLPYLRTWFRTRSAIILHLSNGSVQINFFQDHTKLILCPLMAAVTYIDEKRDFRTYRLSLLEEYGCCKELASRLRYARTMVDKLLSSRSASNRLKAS
The target of assay [2] is T2, Polo-box domain (PBD) of human PLK3 (aa 335–646) (human, UniProt Q9H4B4 335-646).
T2 sequence (looked up): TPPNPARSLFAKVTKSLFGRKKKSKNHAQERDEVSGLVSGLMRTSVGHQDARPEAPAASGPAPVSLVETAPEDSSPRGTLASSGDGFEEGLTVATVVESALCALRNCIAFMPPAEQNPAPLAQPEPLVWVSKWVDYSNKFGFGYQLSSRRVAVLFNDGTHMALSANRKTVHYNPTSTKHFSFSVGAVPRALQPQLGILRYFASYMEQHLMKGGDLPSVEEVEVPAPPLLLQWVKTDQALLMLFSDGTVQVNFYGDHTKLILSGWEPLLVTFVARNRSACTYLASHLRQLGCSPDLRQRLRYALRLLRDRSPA
Briefly: fluorescence polarisation.

In assay [3] the target is Polo-box domain (PBD) of human PLK1 (aa 326–603) (human, UniProt P53350 326-603). The experiment in a line: fluorescence polarisation.
Polo-box domain (PBD) of human PLK1 (aa 326–603), sequence (P53350 326-603): as the sequence (P53350 326-603) above
Assay [4] has as its target T3, Polo-box domain (PBD) of human PLK2 (aa 355–685) (human, UniProt Q9NYY3 355-685).
T3 sequence (looked up): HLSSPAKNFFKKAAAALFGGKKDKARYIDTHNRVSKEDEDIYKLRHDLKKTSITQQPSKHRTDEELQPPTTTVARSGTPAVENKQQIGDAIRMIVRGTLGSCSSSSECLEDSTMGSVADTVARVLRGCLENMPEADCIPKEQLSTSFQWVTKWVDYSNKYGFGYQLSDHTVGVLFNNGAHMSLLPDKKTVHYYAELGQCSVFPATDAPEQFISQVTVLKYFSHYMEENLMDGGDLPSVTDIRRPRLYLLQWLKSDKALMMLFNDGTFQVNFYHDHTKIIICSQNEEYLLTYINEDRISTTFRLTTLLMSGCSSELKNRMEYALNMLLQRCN
Briefly: fluorescence polarisation.

[ ]: non-standard residue; d: D form. The star is where a group is joined. 5FAM = O=C1OC2(c3ccc(O)cc3Oc3cc(O)ccc32)c2ccc(C(=O)*)cc21; pT = C[C@@H](OP(=O)(O)O)[C@H](N)C(=O)O

The term IC50 denotes the concentration at which inhibition is half-maximal. Low values mean inhibition by little substance, high ones a need for much substance. As a reminder, the Kd is the concentration at which binding is half-saturated. A low value points to higher affinity. For `CCOC(=O)c1oc2ccccc2c1CBr` [MCC1019, 3-bromomethyl-benzofuran-2-carboxylic acid ethyl ester], the IC50 at PLK2 Polo-box domain was 44.1 ± 14.4 µM. For the same molecule, binding in assay [1] was put at a Kd of 18.9 µM.

B1: 5-carboxyfluorescein-GPLATSpTPKNG-OH (peptide)
peptide: 5FAM-GPLATS[pT]PKNG-OH
SMILES: CC(C)C[C@H](NC(=O)[C@@H]1CCCN1C(=O)CNC(=O)c1ccc2c(c1)C(=O)OC21c2ccc(O)cc2Oc2cc(O)ccc21)C(=O)N[C@@H](C)C(=O)N[C@H](C(=O)N[C@@H](CO)C(=O)N[C@H](C(=O)N1CCC[C@H]1C(=O)N[C@@H](CCCCN)C(=O)N[C@@H](CC(N)=O)C(=O)NCC(=O)O)[C@@H](C)OP(=O)(O)O)[C@@H](C)O
For the molecule B1, the binding result in assay [2] is “binds”.

B2: 5-carboxyfluorescein-GPMQSpTPLNG-OH (peptide)
peptide: 5FAM-GPMQS[pT]PLNG-OH
SMILES: CSCC[C@H](NC(=O)[C@@H]1CCCN1C(=O)CNC(=O)c1ccc2c(c1)C(=O)OC21c2ccc(O)cc2Oc2cc(O)ccc21)C(=O)N[C@@H](CCC(N)=O)C(=O)N[C@@H](CO)C(=O)N[C@H](C(=O)N1CCC[C@H]1C(=O)N[C@@H](CC(C)C)C(=O)N[C@@H](CC(N)=O)C(=O)NCC(=O)O)[C@@H](C)OP(=O)(O)O
For B2, the binding result in assay [3] is recorded as “binds”.

B3: 5-carboxyfluorescein-GPMQTSpTPKNG-OH (peptide)
peptide: 5FAM-GPMQTS[pT]PKNG-OH
SMILES: CSCC[C@H](NC(=O)[C@@H]1CCCN1C(=O)CNC(=O)c1ccc2c(c1)C(=O)OC21c2ccc(O)cc2Oc2cc(O)ccc21)C(=O)N[C@@H](CCC(N)=O)C(=O)N[C@H](C(=O)N[C@@H](CO)C(=O)N[C@H](C(=O)N1CCC[C@H]1C(=O)N[C@@H](CCCCN)C(=O)N[C@@H](CC(N)=O)C(=O)NCC(=O)O)[C@@H](C)OP(=O)(O)O)[C@@H](C)O
In the case of B3, in assay [4], the binding result is “binds”.

The record behind these values is article PMC6804483 (Acta Pharmaceutica Sinica. B, 2019).
